The record followed here is patent EP3470429A1 (Numab Innovation AG, dated 2019).

The labels stand for the following.
B1: PRO1058 (other)
chain: DIQMTQSPSSLSASVGDRVTITCQASQSINDYLAWYQQKPGKAPKLLIYKASTLASGVPSRFSGSGSGTDFTLTISSLQPEDFATYYCQQGYIITDIDNVFGTGTKVTVLGGGGGSQVQLQESGPGLVKPSETLSLTCKVSGFSFNNDYDMCWIRQPPGKGLEWIGCIDTGDGSTYYASWAKGRVTISVDSSKNQFSLKLSSVTAADTAVYYCAREAASSSGYGMGYFDLWGQGTLVTVSSGGGGSGGGGSGGGGSGGGGSIQMTQSPSSLSASVGDRVTITCQSSQSVYDNNWLAWYQQKPGKAPKLLIYRASNLASGVPSRFSGSGSGTDFTLTISSLQPEDFATYYCQGTYLSSNWYWAFGTGTKVTVLGGGGGSQVQLQESGPGLVKPSETLSLTCKVSGFSFSSGYDMCWIRQPPGKGLEWIGCVVAGSVDITYYASWAKGRVTISVDSSKNQFSLKLSSVTAADTAVYYCARKDAYSDAFNLWGQGTLVTVSSGGGGSGGGGSVVMTQSPSSLSASVGDRVTITCQASQIISSRSAWYQQKPGQPPKLLIYQASKLASGVPSRFSGSGSGTDFTLTISSLQPEDFATYYCQCTYIDSNFGAFGGGTKLTVLGGGGGSGGGGSGGGGSGGGGSEVQLVESGGGLVQPGGSLRLSCAASGFSFSSSYWICWVRQAPGKGLEWVGCVFTGDGTTYYASWAKGRFTISRDNSKNTVYLQMNSLRAEDTATYFCARPVSVYYYGMDLWGQGTLVTVSS
notes: also called 38_27_C05 sc01 scDb-i/33-03-G02 sc01 scDb-o/mxr HSA (23-13-A01-sc03,sk17sh4)
B2: PRO966 (other)
chain: DIQMTQSPSSLSASVGDRVTITCQASQSINDYLAWYQQKPGKAPKLLIYKASTLASGVPSRFSGSGSGTDFTLTISSLQPEDFATYYCQQGYIITDIDNVFGTGTKVTVLGGGGGSQVQLQESGPGLVKPSETLSLTCKVSGFSFNNDYDMCWIRQPPGKGLEWIGCIDTGDGSTYYASWAKGRVTISVDSSKNQFSLKLSSVTAADTAVYYCAREAASSSGYGMGYFDLWGQGTLVTVSSGGGGSGGGGSGGGGSGGGGSIQMTQSPSSLSASVGDRVTITCQSSQSVYDNNWLAWYQQKPGKAPKLLIYRASNLASGVPSRFSGSGSGTDFTLTISSLQPEDFATYYCQGTYLSSNWYWAFGTGTKVTVLGGGGGSQVQLQESGPGLVKPSETLSLTCKVSGFSFSSGYDMCWIRQPPGKGLEWIGCVVAGSVDITYYASWAKGRVTISVDSSKNQFSLKLSSVTAADTAVYYCARKDAYSDAFNLWGQGTLVTVSSGGGGSGGGGSIQMTQSPSSLSASVGDRVTITCQSSESVYSNNQLSWYQQKPGQPPKLLIYDASDLASGVPSRFSGSGSGTDFTLTISSLQPEDFATYYCAGGFSSSSDTAFGGGTKLTVLGGGGGSGGGGSGGGGSGGGGSEVQLVESGGGLVQPGGSLRLSCAASGFSLSSNAMGWVRQAPGKGLEYIGIISVGGFTYYASWAKGRFTISRDNSKNTVYLQMNSLRAEDTATYFCARDRHGGDSSGAFYLWGQGTLVTVSS
notes: also called PRO1052; 38_27_C05 sc01 scDb-i/33-03-G02 sc01 scDb-o/19-01-H04-sc03 scFv
B3: PRO1123 (bispecific antibody)
chain: DIQMTQSPSSLSASVGDRVTITCQASQSINDYLAWYQQKPGKAPKLLIYKASTLASGVPSRFSGSGSGTDFTLTISSLQPEDFATYYCQQGYIITDIDNVFGTGTKVTVLGGGGGSQVQLQESGPGLVKPSETLSLTCKVSGFSFSNSYWICWVRQPPGKGLEWIGCTFVGSSDSTYYANWAKGRVTISVDSSKNQVSLKLSSVTAADTAVYFCARHPSDAVYGYANNLWGQGTLVTVSSGGGGSGGGGSGGGGSGGGGSIQMTQSPSSLSASVGDRVTITCQASQSINNVLAWYQQKPGKPPKLLIYRASTLASGVPSRFSGSGSGTDFTLTISSLQPEDFATYYCQSSYGNYGDFGTGTKVTVLGGGGGSQVQLQESGPGLVKPSETLSLTCKVSGFSFSSGYDMCWIRQPPGKGLEWIGCVVAGSVDITYYASWAKGRVTISVDSSKNQFSLKLSSVTAADTAVYYCARKDAYSDAFNLWGQGTLVTVSS
notes: also called 38-02-A04 sc05 IF scDb-i/33 03 G02 sc01 scDb-o
B4: PRO1013 (scFv)
scFv: DIQMTQSPSSLSASVGDRVTITCQASQSIGTYLAWYQQKPGKAPKLLIYRAFILASGVPSRFSGSGSGTDFTLTISSLQPEDFATYYCQSNFYSDSTTIGPNAFGTGTKVTVLGGGGGSGGGGSGGGGSGGGGSQVQLVQSGAEVKKPGASVKVSCKASGFSFNSDYWIYWVRQAPGQGLEWMGSIYGGSSGNTQYASWAQGRVTMTRDTSISTAYMELSSLRSEDTAVYYCARGYVDYGGATDLWGQGTLVTVSS
B5: PRO1060 (bispecific antibody, human IgG1, kappa, L234A L235A)
light: DIQMTQSPSSLSASVGDRVTITCQASQSINDYLAWYQQKPGKAPKLLIYKASTLASGVPSRFSGSGSGTDFTLTISSLQPEDFATYYCQQGYIITDIDNVFGTGTKVTVLGTVAAPSVFIFPPSDEQLKSGTASVVCLLNNFYPREAKVQWKVDNALQSGNSQESVTEQDSKDSTYSLSSTLTLSKADYEKHKVYACEVTHQGLSSPVTKSFNRGEC
heavy: QVQLQESGPGLVKPSETLSLTCKVSGFSFSSGYDMCWIRQPPGKGLEWIGCVVAGSVDITYYASWAKGRVTISVDSSKNQFSLKLSSVTAADTAVYYCARKDAYSDAFNLWGQGTLVTVSSASTKGPSVFPLAPSSKSTSGGTAALGCLVKDYFPEPVTVSWNSGALTSGVHTFPAVLQSSGLYSLSSVVTVPSSSLGTQTYICNVNHKPSNTKVDKRVEPKSCDKTHTCPPCPAPEAAGGPSVFLFPPKPKDTLMISRTPEVTCVVVDVSHEDPEVKFNWYVDGVEVHNAKTKPREEQYNSTYRVVSVLTVLHQDWLNGKEYKCKVSNKALGAPIEKTISKAKGQPREPQVYTLPPSREEMTKNQVSLTCLVKGFYPSDIAVEWESNGQPENNYKTTPPVLDSDGSFFLYSKLTVDKSRWQQGNVFSCSVMHEALHNHYTQKSLSLSPGKGGGGSGGGGSIQMTQSPSSLSASVGDRVTITCQASQSINNVLAWYQQKPGKAPKLLIYRASTLASGVPSRFSGSGSGTDFTLTISSLQPEDFATYYCQSSYGNYGDFGTGTKVTVLGGGGGSGGGGSGGGGSGGGGSQVQLQESGPGLVKPSETLSLTCKVSGFSFSNSYWICWIRQPPGKGLEWIGCTFVGSSDSTYYANWAKGRVTISVDSSKNQFSLKLSSVTAADTAVYYCARHPSDAVYGYANNLWGQGTLVTVSS
B6: PRO951 (bispecific antibody)
chain: DIQMTQSPSSLSASVGDRVTITCQASQSINDYLAWYQQKPGKAPKLLIYKASTLASGVPSRFSGSGSGTDFTLTISSLQPEDFATYYCQQGYIITDIDNVFGTGTKVTVLGGGGGSEVQLVESGGGLVQPGGSLRLSCAASGFSFNNDYDMCWVRQAPGKGLEWIGCIDTGDGSTYYASWAKGRFTISRDNSKNTVYLQMNSLRAEDTAVYYCAREAASSSGYGMGYFDLWGQGTLVTVSSGGGGSGGGGSGGGGSGGGGSIQMTQSPSSLSASVGDRVTITCQSSQSVYDNNWLAWYQQKPGKAPKLLIYRASNLASGVPSRFSGSGSGTDFTLTISSLQPEDFATYYCQGTYLSSNWYWAFGTGTKVTVLGGGGGSQVQLQESGPGLVKPSETLSLTCKVSGFSFSSGYDMCWIRQPPGKGLEWIGCVVAGSVDITYYASWAKGRVTISVDSSKNQFSLKLSSVTAADTAVYYCARKDAYSDAFNLWGQGTLVTVSS
B7: PRO830 (scFv)
scFv: DIQMTQSPSSLSASVGDRVTITCQASQSINDYLAWYQQKPGKAPKLLIYKASTLASGVPSRFSGSGSGTDFTLTISSLQPEDFATYYCQQGYIITDIDNVFGTGTKVTVLGGGGGSGGGGSGGGGSGGGGSQVQLQESGPGLVKPSETLSLTCKVSGFSFSSGYDMCWIRQPPGKGLEWIGCVVAGSVDITYYASWAKGRVTISVDSSKNQFSLKLSSVTAADTAVYYCARKDAYSDAFNLWGQGTLVTVSS
B8: PRO963 (other)
chain: DIQMTQSPSSLSASVGDRVTITCQASQSINDYLAWYQQKPGKAPKLLIYKASTLASGVPSRFSGSGSGTDFTLTISSLQPEDFATYYCQQGYIITDIDNVFGTGTKVTVLGGGGGSQVQLQESGPGLVKPSETLSLTCKVSGFSFSNSYWICWIRQPPGKGLEWIGCTFVGSSDSTYYANWAKGRVTISVDSSKNQFSLKLSSVTAADTAVYYCARHPSDAVYGYANNLWGQGTLVTVSSGGGGSGGGGSGGGGSGGGGSIQMTQSPSSLSASVGDRVTITCQASQSINNVLAWYQQKPGKAPKLLIYRASTLASGVPSRFSGSGSGTDFTLTISSLQPEDFATYYCQSSYGNYGDFGTGTKVTVLGGGGGSQVQLQESGPGLVKPSETLSLTCKVSGFSFSSGYDMCWIRQPPGKGLEWIGCVVAGSVDITYYASWAKGRVTISVDSSKNQFSLKLSSVTAADTAVYYCARKDAYSDAFNLWGQGTLVTVSSGGGGSGGGGSIQMTQSPSSLSASVGDRVTITCQSSESVYSNNQLSWYQQKPGQPPKLLIYDASDLASGVPSRFSGSGSGTDFTLTISSLQPEDFATYYCAGGFSSSSDTAFGGGTKLTVLGGGGGSGGGGSGGGGSGGGGSEVQLVESGGGLVQPGGSLRLSCAASGFSLSSNAMGWVRQAPGKGLEYIGIISVGGFTYYASWAKGRFTISRDNSKNTVYLQMNSLRAEDTATYFCARDRHGGDSSGAFYLWGQGTLVTVSS
notes: also called PRO1051; 38_02_A04 sc01 scDb-i/33-03-G02 sc01 scDb-o/19-01-H04-sc03 scFv
B9: PRO1059 (bispecific antibody, human IgG1, kappa, L234A L235A)
light: DIQMTQSPSSLSASVGDRVTITCQASQSINDYLAWYQQKPGKAPKLLIYKASTLASGVPSRFSGSGSGTDFTLTISSLQPEDFATYYCQQGYIITDIDNVFGTGTKVTVLGTVAAPSVFIFPPSDEQLKSGTASVVCLLNNFYPREAKVQWKVDNALQSGNSQESVTEQDSKDSTYSLSSTLTLSKADYEKHKVYACEVTHQGLSSPVTKSFNRGECGGGGSGGGGSIQMTQSPSSLSASVGDRVTITCQASQSINNVLAWYQQKPGKAPKLLIYRASTLASGVPSRFSGSGSGTDFTLTISSLQPEDFATYYCQSSYGNYGDFGTGTKVTVLGGGGGSGGGGSGGGGSGGGGSQVQLQESGPGLVKPSETLSLTCKVSGFSFSNSYWICWIRQPPGKGLEWIGCTFVGSSDSTYYANWAKGRVTISVDSSKNQFSLKLSSVTAADTAVYYCARHPSDAVYGYANNLWGQGTLVTVSS
heavy: QVQLQESGPGLVKPSETLSLTCKVSGFSFSSGYDMCWIRQPPGKGLEWIGCVVAGSVDITYYASWAKGRVTISVDSSKNQFSLKLSSVTAADTAVYYCARKDAYSDAFNLWGQGTLVTVSSASTKGPSVFPLAPSSKSTSGGTAALGCLVKDYFPEPVTVSWNSGALTSGVHTFPAVLQSSGLYSLSSVVTVPSSSLGTQTYICNVNHKPSNTKVDKRVEPKSCDKTHTCPPCPAPEAAGGPSVFLFPPKPKDTLMISRTPEVTCVVVDVSHEDPEVKFNWYVDGVEVHNAKTKPREEQYNSTYRVVSVLTVLHQDWLNGKEYKCKVSNKALGAPIEKTISKAKGQPREPQVYTLPPSREEMTKNQVSLTCLVKGFYPSDIAVEWESNGQPENNYKTTPPVLDSDGSFFLYSKLTVDKSRWQQGNVFSCSVMHEALHNHYTQKSLSLSPGK

The first assay deals with T1, human PD-L1-Fc chimeric protein (human, UniProt Q9NZQ7 19-238).
T1 construct: not shown: Fc part, captured by an anti-human IgG Fc antibody
Nature of the assay: SPR Biacore T200, PD-L1-Fc captured by anti-human Fc. Background: Surface plasmon resonance follows binding to a sensor surface in real time, without labels.
Take B1: the binding result is listed as “binds”.
The same measure, in the same setting: then B2, with “binds”.
Regarding B3, the binding result is “binds”.

For another assay, the target named is human PD-L1 expressed on cells (human, UniProt Q9NZQ7 19-290). Kind of assay: cell-based or functional assay.
Regarding B4, the “IC50 (ng/ml), NF-AT Potency assay” value was 21.3 ng/mL.
For B5, the “IC50 (ng/ml), NF-AT Potency assay” value is 133 ng/mL.
Turning to B6, the “IC50 (ng/ml), NF-AT Potency assay” value is 88.5 ng/mL.
Turning to B7, the “IC50 (ng/ml), NF-AT Potency assay” value came to 42.9 ng/mL.
Take B8: the “IC50 (ng/ml), NF-AT Potency assay, with HSA” value turned out to be 275 ng/mL.
For B9, the “IC50 (ng/ml), NF-AT Potency assay” value is 93.8 ng/mL.

Another assay concerns the target T2, human serum albumin (human, UniProt P02768 25-609).
T2 construct: also called HSA; human SA
Nature of the assay: SPR Biacore T200, SA amine-coupled to CM5 chip, pH 5.5.
For B1, the binding result is recorded as “binds”.
On the same count and under the same terms, to B2 belongs “binds”; to B8, “binds”.
